# B1: C22orf15 (parent)
# chain: ITQSWQVSVRVQPRGRAHLLPNPY
# Variants of: B1
# Assay: protein stability index of a GFP-peptide fusion (GPS, HEK-293T) (PSI 1-6); higher = more stable
# Conditions: c terminus: a fixed tail appended
# 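Also: lentivirally expressed fusions sorted by FACS into six bins by GFP to DsRed ratio, PSI derived from sequencing read proportions per bin multiplied by bin number.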
row,Variant,protein stability index
1,ITQSWQVSVRVQPRHRAHLLPNPY,2.03
2,ITQSWQVSVRVQPRERAHLLPNPY,2.02
3,ITQSWQVSVRVQPRCRAHLLPNPY,1.97
4,ITQSWQVSVRVQPRNRAHLLPNPY,3.33
5,ITQSWQVSVRVQPRARAHLLPNPY,4.31
6,ITQSWQVSVRVQPRKRAHLLPNPY,2.31
7,ITQSWQVSVRVQPRDRAHLLPNPY,1.94
8,ITQSWQVSVRVQPRFRAHLLPNPY,1.97
9,ITQSWQVSVRVQPRPRAHLLPNPY,3.81
10,ITQSWQVSVRVQPRQRAHLLPNPY,1.48
11,ITQSWQVSVRVQPLGRAHLLPNPY,2.15
12,ITQSWQVSVRVQPQGRAHLLPNPY,2.15
13,ITQSWQVSVRVQPDGRAHLLPNPY,1.87
14,ITQSWQVSVRVQPEGRAHLLPNPY,2.73
15,ITQSWQVSVRVQPNGRAHLLPNPY,1.98
16,ITQSWQVSVRVQPPGRAHLLPNPY,1.68
17,ITQSWQVSVRVQPHGRAHLLPNPY,2
18,ITQSWQVSVRVQPKGRAHLLPNPY,2.25
19,ITQSWQVSVRVQPFGRAHLLPNPY,1.78
20,ITQSWQVSVRVQPTGRAHLLPNPY,1.05
21,ITQSWQVSVRVQPYGRAHLLPNPY,1.85
22,ITQSWQVSVRVQPIGRAHLLPNPY,1.54
23,ITQSWQVSVRVQPAGRAHLLPNPY,3.37
24,ITQSWQVSVRVEPRGRAHLLPNPY,2.61

row,Variant,protein stability index
1,ITQSWQVSVRVCPRGRAHLLPNPY,1.77
2,ITQSWQVSVRVAPRGRAHLLPNPY,1.16
3,ITQSWQVSVRVHPRGRAHLLPNPY,2.27
4,ITQSWQVSVRVYPRGRAHLLPNPY,2.25
5,ITQSWQVSVRVSPRGRAHLLPNPY,2.13
6,ITQSWQVSVRVDPRGRAHLLPNPY,2.27
7,ITQSWQVSVRVNPRGRAHLLPNPY,2.98
8,ITQSWQVSVRVFPRGRAHLLPNPY,3.49
9,ITQSWQVSVRVMPRGRAHLLPNPY,3.2
10,ITQSWQVSVRVTPRGRAHLLPNPY,1
11,ITQSWQVSVRVWPRGRAHLLPNPY,2.49
12,ITQSWQVSVRVPPRGRAHLLPNPY,1.72
13,ITQSWQVSVRVKPRGRAHLLPNPY,1.79
14,ITQSWQVSVRVGPRGRAHLLPNPY,3.64
15,ITQSWQRSVRVQPRGRAHLLPNPY,2.39
16,ITQSWQPSVRVQPRGRAHLLPNPY,2.7
17,ITQSWQYSVRVQPRGRAHLLPNPY,1.86
18,ITQSWQCSVRVQPRGRAHLLPNPY,1.6
19,ITQSWQLSVRVQPRGRAHLLPNPY,1.88
20,ITQSWQMSVRVQPRGRAHLLPNPY,2.46
21,ITQSWQQSVRVQPRGRAHLLPNPY,2.51
22,ITQSWQFSVRVQPRGRAHLLPNPY,2.22
23,ITQSWQTSVRVQPRGRAHLLPNPY,2.04
24,ITQSWQKSVRVQPRGRAHLLPNPY,1.81

row,Variant,protein stability index
1,ITQSWQWSVRVQPRGRAHLLPNPY,1.5
2,ITQSWQSSVRVQPRGRAHLLPNPY,2.12
3,ITQSWQDSVRVQPRGRAHLLPNPY,2.42
4,ITQSWQGSVRVQPRGRAHLLPNPY,2.34
5,ITQSWQESVRVQPRGRAHLLPNPY,2.29
6,ITQSWQNSVRVQPRGRAHLLPNPY,2.38
7,ITQSWQHSVRVQPRGRAHLLPNPY,2.68
8,ITQSWQASVRVQPRGRAHLLPNPY,2.77
9,ITQSWQVSVRVQDRGRAHLLPNPY,1.86
10,ITQSWQVSVRVQQRGRAHLLPNPY,2.21
11,ITQSWQVSVRVQYRGRAHLLPNPY,2.01
12,ITQSWQVSVRVQLRGRAHLLPNPY,2.69
13,ITQSWQVSVRVQIRGRAHLLPNPY,2.67
14,ITQSWQVSVRVQVRGRAHLLPNPY,3.02
15,ITQSWQVSVRVQNRGRAHLLPNPY,1.74
16,ITQSWQVSVRVQSRGRAHLLPNPY,2.67
17,ITQSWQVSVRVQGRGRAHLLPNPY,1.64
18,ITQSWQVSVRVQKRGRAHLLPNPY,1.65
19,ITQSWQVSVRVQRRGRAHLLPNPY,1.16
20,ITQSWQVSVRVQTRGRAHLLPNPY,1.94
21,ITQSWQVSVRVQHRGRAHLLPNPY,2.27
22,ITQSWQVSVRVQMRGRAHLLPNPY,1.91
23,ITQAWQVSVRVQPRGRAHLLPNPY,3.33
24,ITQPWQVSVRVQPRGRAHLLPNPY,1.65

row,Variant,protein stability index
1,ITQFWQVSVRVQPRGRAHLLPNPY,3.65
2,ITQYWQVSVRVQPRGRAHLLPNPY,2.42
3,ITQNWQVSVRVQPRGRAHLLPNPY,1.73
4,ITQHWQVSVRVQPRGRAHLLPNPY,2.83
5,ITQQWQVSVRVQPRGRAHLLPNPY,1.87
6,ITQKWQVSVRVQPRGRAHLLPNPY,1.42
7,ITQGWQVSVRVQPRGRAHLLPNPY,2.27
8,ITQTWQVSVRVQPRGRAHLLPNPY,1.48
9,ITQRWQVSVRVQPRGRAHLLPNPY,2.99
10,ITQSWDVSVRVQPRGRAHLLPNPY,2.15
11,ITQSWPVSVRVQPRGRAHLLPNPY,3.07
12,ITQSWIVSVRVQPRGRAHLLPNPY,2.74
13,ITQSWEVSVRVQPRGRAHLLPNPY,1.92
14,ITQSWNVSVRVQPRGRAHLLPNPY,1.73
15,ITQSWSVSVRVQPRGRAHLLPNPY,1.9
16,ITQSWFVSVRVQPRGRAHLLPNPY,4.73
17,ITQSWYVSVRVQPRGRAHLLPNPY,1.96
18,ITQSWAVSVRVQPRGRAHLLPNPY,1.09
19,ITQSWTVSVRVQPRGRAHLLPNPY,1.77
20,ITQSYQVSVRVQPRGRAHLLPNPY,1.84
21,ITQSNQVSVRVQPRGRAHLLPNPY,2.86
22,ITQSCQVSVRVQPRGRAHLLPNPY,2.25
23,ITQSTQVSVRVQPRGRAHLLPNPY,1.48
24,ITQSHQVSVRVQPRGRAHLLPNPY,2.57

row,Variant,protein stability index
1,ITQSAQVSVRVQPRGRAHLLPNPY,1.86
2,ITQSFQVSVRVQPRGRAHLLPNPY,2.29
3,ITQSMQVSVRVQPRGRAHLLPNPY,1.61
4,ITQSLQVSVRVQPRGRAHLLPNPY,3.62
5,ITQSEQVSVRVQPRGRAHLLPNPY,2.97
6,ITQSKQVSVRVQPRGRAHLLPNPY,3.36
7,ITQSIQVSVRVQPRGRAHLLPNPY,4.28
8,ITQSDQVSVRVQPRGRAHLLPNPY,2.32
9,ITQSVQVSVRVQPRGRAHLLPNPY,3.07
10,ITQSPQVSVRVQPRGRAHLLPNPY,2.56
11,ITQSSQVSVRVQPRGRAHLLPNPY,2.69
12,ITQSQQVSVRVQPRGRAHLLPNPY,1.81
13,ITQSRQVSVRVQPRGRAHLLPNPY,2.21
14,ITESWQVSVRVQPRGRAHLLPNPY,1.07
15,ITHSWQVSVRVQPRGRAHLLPNPY,2.02
16,ITASWQVSVRVQPRGRAHLLPNPY,3.08
17,ITSSWQVSVRVQPRGRAHLLPNPY,3.25
18,ITKSWQVSVRVQPRGRAHLLPNPY,1.95
19,ITFSWQVSVRVQPRGRAHLLPNPY,2.14
20,ITRSWQVSVRVQPRGRAHLLPNPY,1.1
21,ITDSWQVSVRVQPRGRAHLLPNPY,1.47
22,ITYSWQVSVRVQPRGRAHLLPNPY,4.26
23,ITNSWQVSVRVQPRGRAHLLPNPY,1.85
24,ITWSWQVSVRVQPRGRAHLLPNPY,1.68

row,Variant,protein stability index
1,ITTSWQVSVRVQPRGRAHLLPNPY,1.51
2,IPQSWQVSVRVQPRGRAHLLPNPY,2.43
3,IYQSWQVSVRVQPRGRAHLLPNPY,3.42
4,IQQSWQVSVRVQPRGRAHLLPNPY,2.53
5,IMQSWQVSVRVQPRGRAHLLPNPY,3.15
6,IWQSWQVSVRVQPRGRAHLLPNPY,2.62
7,ISQSWQVSVRVQPRGRAHLLPNPY,1.77
8,ITQSWQVSKRVQPRGRAHLLPNPY,1.91
9,ITQSWQVSARVQPRGRAHLLPNPY,2.19
10,ITQSWQVSQRVQPRGRAHLLPNPY,2.44
11,ITQSWQVSMRVQPRGRAHLLPNPY,1.34
12,ITQSWQVSLRVQPRGRAHLLPNPY,2.7
13,ITQSWQVSPRVQPRGRAHLLPNPY,1.81
14,ITQSWQVSDRVQPRGRAHLLPNPY,2.02
15,ITQSWQVSTRVQPRGRAHLLPNPY,1.55
16,ITQSWQVSERVQPRGRAHLLPNPY,2.26
17,ITQSWQVSHRVQPRGRAHLLPNPY,2.88
18,ITQSWQVSFRVQPRGRAHLLPNPY,1.74
19,ITQSWQVSSRVQPRGRAHLLPNPY,1.91
20,ITQSWQVSNRVQPRGRAHLLPNPY,2.45
21,ITQSWQVSIRVQPRGRAHLLPNPY,2.64
22,ITQSWQVSVRYQPRGRAHLLPNPY,1.68
23,ITQSWQVSVRNQPRGRAHLLPNPY,2.51
24,ITQSWQVSVRQQPRGRAHLLPNPY,1.49

row,Variant,protein stability index
1,ITQSWQVSVRRQPRGRAHLLPNPY,1.86
2,ITQSWQVSVRHQPRGRAHLLPNPY,2.49
3,ITQSWQVSVRMQPRGRAHLLPNPY,3.05
4,ITQSWQVSVRKQPRGRAHLLPNPY,3.28
5,ITQSWQVSVRIQPRGRAHLLPNPY,4.95
6,ITQSWQVSVREQPRGRAHLLPNPY,2.65
7,ITQSWQVSVRTQPRGRAHLLPNPY,1.87
8,ITQSWQVSVRSQPRGRAHLLPNPY,1.95
9,ITQSWQVSVRAQPRGRAHLLPNPY,2.07
10,ITQSWQVSVRGQPRGRAHLLPNPY,2.43
11,ITQSWQVSVRDQPRGRAHLLPNPY,2.45
12,ITQSWQVSVRFQPRGRAHLLPNPY,1.69
13,ITQSWQVSVRPQPRGRAHLLPNPY,1.8
14,ITQSWQVCVRVQPRGRAHLLPNPY,1.12
15,ITQSWQVGVRVQPRGRAHLLPNPY,2.39
16,ITQSWQVYVRVQPRGRAHLLPNPY,1.8
17,ITQSWQVEVRVQPRGRAHLLPNPY,1.54
18,ITQSWQVNVRVQPRGRAHLLPNPY,1.46
19,ITQSWQVAVRVQPRGRAHLLPNPY,1.27
20,ITQSWQVDVRVQPRGRAHLLPNPY,2.65
21,ITQSWQVMVRVQPRGRAHLLPNPY,2.55
22,ITQSWQVFVRVQPRGRAHLLPNPY,2.21
23,ITQSWQVRVRVQPRGRAHLLPNPY,2.73
24,ITQSWQVTVRVQPRGRAHLLPNPY,3.34

row,Variant,protein stability index
1,ITQSWQVHVRVQPRGRAHLLPNPY,2.28
2,ITQSWQVPVRVQPRGRAHLLPNPY,1.71
3,ITQSWQVSVSVQPRGRAHLLPNPY,1.98
4,ITQSWQVSVAVQPRGRAHLLPNPY,1.83
5,ITQSWQVSVCVQPRGRAHLLPNPY,1
6,ITQSWQVSVLVQPRGRAHLLPNPY,2.47
7,ITQSWQVSVMVQPRGRAHLLPNPY,2.9
8,ITQSWQVSVQVQPRGRAHLLPNPY,2.09
9,ITQSWQVSVWVQPRGRAHLLPNPY,2.02
10,ITQSWQVSVKVQPRGRAHLLPNPY,2.41
11,ITQSWQVSVPVQPRGRAHLLPNPY,1.83
12,ITQSWQVSVTVQPRGRAHLLPNPY,1.98
13,ITQSWQVSVIVQPRGRAHLLPNPY,3.79
14,ITQSWQVSVFVQPRGRAHLLPNPY,2.62
15,ITQSWQVSVNVQPRGRAHLLPNPY,2.63
16,ITQSWQVSVHVQPRGRAHLLPNPY,1.5
17,ITQSWQVSVDVQPRGRAHLLPNPY,2.05
18,ITQSWQVSVEVQPRGRAHLLPNPY,1.32
19,ITQSWQVSVYVQPRGRAHLLPNPY,2.12
20,ITQSWQVSVGVQPRGRAHLLPNPY,2.89

# Reference: the supplement of paper PMC10567573
